US20210096139A1

Biological target: human CSF tau (human) (UniProt P10636)
Assay: IP of tau from human CSF on antibody beads; recovery assessed by N-terminus tau ELISA (HJ8.5 capture, HJ8.7-biotin detection); value is the average over Tau12, HJ8.5 and HJ8.7

Sequence of UniProt P10636 (P10636 2-758 limits assumed): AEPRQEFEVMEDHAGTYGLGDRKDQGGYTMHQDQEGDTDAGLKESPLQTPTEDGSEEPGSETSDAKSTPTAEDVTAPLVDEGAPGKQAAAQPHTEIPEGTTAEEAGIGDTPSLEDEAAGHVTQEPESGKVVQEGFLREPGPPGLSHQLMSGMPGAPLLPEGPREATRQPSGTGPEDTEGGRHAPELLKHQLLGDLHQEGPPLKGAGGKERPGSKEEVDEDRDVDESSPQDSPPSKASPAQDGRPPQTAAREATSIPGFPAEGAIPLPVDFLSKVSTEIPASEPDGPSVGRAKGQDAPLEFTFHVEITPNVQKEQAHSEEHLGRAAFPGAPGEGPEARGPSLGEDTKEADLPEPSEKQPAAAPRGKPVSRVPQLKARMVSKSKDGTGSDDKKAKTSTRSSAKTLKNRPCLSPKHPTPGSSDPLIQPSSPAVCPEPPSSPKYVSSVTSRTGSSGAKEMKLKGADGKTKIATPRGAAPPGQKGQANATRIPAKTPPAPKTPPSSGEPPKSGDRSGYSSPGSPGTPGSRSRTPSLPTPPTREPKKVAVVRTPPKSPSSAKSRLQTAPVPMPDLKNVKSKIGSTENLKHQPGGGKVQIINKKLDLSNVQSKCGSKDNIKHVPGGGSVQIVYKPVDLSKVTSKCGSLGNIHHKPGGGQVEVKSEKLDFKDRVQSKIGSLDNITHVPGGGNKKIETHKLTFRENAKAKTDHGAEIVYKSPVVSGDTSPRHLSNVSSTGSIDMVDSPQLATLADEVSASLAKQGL

immunoprecipitation efficiency [%] | Substance
99.3 | HJ8.7 (antibody)
99.3 | Tau12 (antibody)
